Measurements as given in patent US20240002497A1 (Merck Sharp & Dohme, published 2024).
Each block holds one binder with its values, some of them ahead of it.

Columns and labels:
[1] = molecular target: T1, Navβ3 (human, UniProt Q9NY72 23-215, limits assumed); assay: binding ELISA
T1 construct: also called beta3 subunit

[2] = molecular target: T2, huNav1.7α (human, UniProt Q15858 1-1988); assay: further characterization (binding ELISA and FACS)
T2 construct: HEK cells expressing the α subunit alone; also called HEKa; HEK huNav1.7α

[3] = molecular target: T3, huNav1.7α + β1-β2-β3 (human, UniProt Q15858 1-1988; A5A6L6 19-218; O60939 30-215; Q2KI11 23-215); assay: competition FACS, HEK FlpIn cells, vs EC30 of CMYC3-F0103265B04
T3 construct: Cell line (CHO FlpIn, HEK FlpIn, transient HEK293T) is named under assay; also called huNav1.7-beta1-beta2-beta3; human Nav1.7α with Navβ1, Navβ2 and Navβ3
Protocol: Competition FACS assays were performed with CMYC3-tagged ISVD F0103265B04 or F0103275B05(N93R) affinity maturation variant on a HEK FlpIn huNav1.7α+β1−β2−β3 transgenic cell line. Briefly, cells were resuspended in FACS buffer (PBS, 2% FBS, 0.05% NaN₃) and 1×10⁵ cells/well were transferred to 96-well V-bottom plates. Cells were subsequently resuspended in a 100 μL mixture of purified ISVD (dilution series) and CMYC3-tagged ISVD F0103265B04 (at a concentration equivalent to EC30) followed by incubation for 1.5 hours at 4° C. […] Between each step, the cells were centrifuged for 5 minutes at 200 g and washed with 100 μL/well FACS buffer. Prior to the read-out, the samples were resuspended in 5 nM TOPRO3 (Molecular probes, catalog #T3605) to exclude dead cells. F0103262CO2, F0103262B06, F0103265A11, F0103265B04, F0103275B05, F0103362B08, and F0103387G04 all compete with F0103265B04 for binding to huNav1.7α, in contrast to an irrelevant control ISVD (IRR) (see Table 21 and FIG. 15A, FIG. 15B, FIG. 15C, and FIG. 15D).

[4] = molecular target: T4, rhNav1.7α + β1-β2-β3 (rhesus monkey); assay: binding FACS, CHO FlpIn cells
T4 construct: also called rhNav1.7-beta1-beta2-beta3; rhesus Nav1.7α
Protocol: (§1) Binding of the ISVDs to cell-expressed Nav1.7α was detected via murine anti-Flag (Sigma, catalog #F1804). Briefly, cells were resuspended in FACS buffer (PBS, 10% FBS, NaN₃) and transferred to a 96-well V-bottom plate at 1×10^5 cells/well. Purified FLAG3-tagged ISVD was diluted in FACS buffer and added to the cells for 30 minutes at 4° C. […] Prior to the read-out, the samples were resuspended in 1 μg/mL propidium iodide (Sigma, catalog #P4170) to exclude dead cells. Between each step, the cells were centrifuged for 5 minutes at 200 grams and washed with 100 μL/well FACS buffer.
(§2) Based on the huNav1.7α model (as described above) the following huNav1.7α-rhNav1.7α polymorphisms can be allocated to the extracellular part of DI: N146S, F276V, R277Q, E281V and V331M. The first of the residues is in DI S1-S2 whereas the latter four residues belong to DI S5-S6. FACS binding studies (as described above) were performed to stable CHO FlpIn cell lines expressing different variants of huNav1.7+β1−β2−β3 each including one of the four possible extracellular huNav1.7α-rhNav1.7α polymorphisms in the DI S5-S6 region: F276V, R277Q, E281V and V331M (Table 23 and FIGS. 22A-22F). Individual polymorphisms were each sufficient to abolish the binding of F0103265B04, F0103362B08, F010301080, and F0103262B06 to huNav1.7α, recapitulating the absence of binding on rhNav1.7α. F0103262CO2, F0103275B05 and F0103387G05 are more subtly affected in terms of EC50 or Bmax by some of the polymorphisms. None of the individual DI S5-S6 polymorphisms by themselves appear to have an impact on the binding of the two rhNav1.7α cross-reactive ISVDs F0103387G04 and F0103464B09. In addition, no effect on binding of the two ISVDs was observed (data not shown) for the three extracellular DIV VSD huNav1.7α-rhNav1.7α polymorphisms Q1530P, H1531Y and E1534D (FIG. 22G).

[5] = molecular target: T3, huNav1.7α + β1-β2-β3; assay: binding FACS, CHO FlpIn cells
Protocol: as §1, §2

[6] = molecular target: T5, huNav1.7α(R277Q) + β1-β2-β3 (human); assay: binding FACS, CHO FlpIn cells
T5 construct: polyprotein as encoded; the entry already carries R277Q; also called huNav1.7(R277Q)-beta1-beta2-beta3
Protocol: as §1, §2

[7] = molecular target: T6, huNav1.7α(V331M) + β1-β2-β3 (human); assay: binding FACS, CHO FlpIn cells
T6 construct: polyprotein as encoded; the entry already carries V331M; also called huNav1.7(V331M)-beta1-beta2-beta3
Protocol: as §1, §2

[8] = molecular target: T7, huNav1.7α(F276V) + β1-β2-β3 (human, UniProt Q15858 1-1988; A5A6L6 19-218; O60939 30-215; Q2KI11 23-215); assay: binding FACS, CHO FlpIn cells
T7 construct: polyprotein as encoded, P2A sites liberate the subunits; the entry already carries F276V; also called huNav1.7(F276V)-beta1-beta2-beta3
Protocol: as §1, §2

[9] = molecular target: T8, huNav1.7α(E281V) + β1-β2-β3 (human); assay: binding FACS, CHO FlpIn cells
T8 construct: polyprotein as encoded; the entry already carries E281V; also called huNav1.7(E281V)-beta1-beta2-beta3
Protocol: as §1, §2

[10] = molecular target: T9, huNav157chim4 + β1-β2-β3 (human, UniProt Q15858 44-1988; A5A6L6 19-218; O60939 30-215; Q2KI11 23-215); assay: FACS, transiently transfected HEK293T cells
T9 construct: DII, DIII, DIV from Nav1.7α, DI from Nav1.5α; also called huNav157 chimera 4
Protocol: as §1
(§3) FACS binding studies (as described above) were performed on HEK293T cells transiently transfected with expression vectors encoding a huNav1.7α or rhNav1.7α fused at the C-terminus via a P2A viral peptide linker to a single polypeptide encoding sodium channel beta subunits Navβ1, Navβ2, and Navβ3 in tandem (β1-β2-β3; SEQ ID NO:21). Similarly, HEK293T cells transiently transfected with expression vectors encoding chimeric variants of huNav1.7α in which individual domains are replaced by their huNav1.5α counterparts (chimeras 1 to 4 in FIG. 16) or with chimeric variants of huNav1.5 in which individual domains are replaced by their huNav1.7α counterparts (chimeras 5 to 8 in FIG. 16) fused at the C-terminus via a P2A viral peptide linker to β1-β2-β3 as above. See Table 7 for description of the expression vectors encoding the chimeras, Table 21 and FIG. 16).

[11] = molecular target: T10, huNav157chim6 + β1-β2-β3 (human); assay: FACS, transiently transfected HEK293T cells
T10 construct: DI, DII, DIV from Nav1.5α, DIII from Nav1.7α; also called huNav157 chimera 6
Protocol: as §1, §3

[12] = molecular target: T11, huNav157chim7 + β1-β2-β3 (human); assay: FACS, transiently transfected HEK293T cells
T11 construct: DI, DIII, DIV from Nav1.5α, DII from Nav1.7α; also called huNav157 chimera 7
Protocol: as §1, §3

[13] = molecular target: T12, huNav157chim5 + β1-β2-β3 (human); assay: FACS, transiently transfected HEK293T cells
T12 construct: DI, DII, DIII from Nav1.5α, DIV from Nav1.7α; also called huNav157 chimera 5
Protocol: as §1, §3

[14] = molecular target: T13, huNav157chim12 + β1-β2-β3 (human, UniProt Q15858 1-1988; A5A6L6 19-218; O60939 30-215; Q2KI11 23-215); assay: FACS, transiently transfected HEK293T cells
T13 construct: DI S5-S6 from Nav1.5α, rest Nav1.7α; also called huNav157 chimera 12
Protocol: as §1, §3

B3: F0103262C02 (VHH)
VHH: EVQLVESGGGLVQAGGSLTLSCAASGLPFGLYILGWIRRAPGKERDFVAAISRSGRDTVYANSVKGRFTISRDNAKNMVYLRMDNLRPEDTAAYYCAVDSVPRGTPTITESEYAIWGQGTLVTVSS
notes: entry includes the FLAG-HIS6 tag; also called F0103262C02 (parental)-FLAG-HIS6; F103262CO2
IC50 [3]: 530 nM
binding result [4]: no binding
EC50 [5]: 290 nM
EC50 [6]: 450 nM
EC50 [7]: 86 nM
EC50 [8]: 210 nM
EC50 [9]: 240 nM
binding result [10]: no binding (tested: 1 µM)
binding result [11]: no binding (tested: 1 µM)
binding result [12]: no binding (tested: 1 µM)
binding result [13]: no binding (tested: 1 µM)
binding result [14]: no binding (tested: 1 µM)

B4: F0103265B04 (VHH)
VHH: EVQLVESGGGLVQPGGSLRLSCAAPSFIFSNNYMEWYRQAPGKQRDWVARITGRGNTNYLDSVKGRFTISRDDAKNTVYLEIDSLKPEDTAVYYCSALWYGGRAWGKGTLVTVSS
notes: entry includes the FLAG-HIS6 tag; also called F0103265B04 (parental)-FLAG-HIS6
IC50 [3]: 18 nM
binding result [4]: no binding
EC50 [5]: 9.2 nM
EC50 [6]: 7.1 nM
binding result [7]: no binding
binding result [8]: no binding
EC50 [9]: 7.5 nM
binding result [10]: no binding (tested: 1 µM)
binding result [11]: no binding (tested: 1 µM)
binding result [12]: no binding (tested: 1 µM)
binding result [13]: no binding (tested: 1 µM)
binding result [14]: no binding (tested: 1 µM)

B5: F0103265A11 (VHH)
VHH: EVQLVESGGGLVQPGGSLRLSCAASGMLFNANTQGWYRQAPGKQRELVAFIFSGGYTNYVDSVKGRFTISRDNAKRTMYLQMNSLKPEDSAIYYCSLSRYLGQGTLVTVSS
notes: entry includes the FLAG-HIS6 tag; also called F0103265A11 (parental)-FLAG-HIS6
IC50 [3]: 75 nM
binding result [10]: no binding (tested: 1 µM)
binding result [11]: no binding (tested: 1 µM)
binding result [12]: no binding (tested: 1 µM)
binding result [13]: no binding (tested: 1 µM)
binding result [14]: no binding (tested: 1 µM)

B6: F0103262B06 (VHH)
VHH: EVQLVESGGGLVQPGGSLRLSCAGSTRTFSTYAMGWFRQAPGREREFVAHINFSGSSTRYADSVKGRFTISRDNAKNMGYLQMNSLKPEDTAVYYCAARWVAGPPRYDYEYWGQGTLVTVSS
notes: entry includes the FLAG-HIS6 tag; also called F0103262B06 (parental)-FLAG-HIS6
IC50 [3]: 49 nM
binding result [4]: no binding
EC50 [5]: 47 nM
binding result [6]: no binding
EC50 [7]: 63 nM
binding result [8]: no binding
binding result [9]: no binding
binding result [10]: no binding (tested: 1 µM)
binding result [11]: no binding (tested: 1 µM)
binding result [12]: no binding (tested: 1 µM)
binding result [13]: no binding (tested: 1 µM)
binding result [14]: no binding (tested: 1 µM)

Continued, values first:

binding result [1]: no binding
binding result [2]: no binding
B1: F0103478E09 (VHH)
VHH: EVQLVESGGGLVQAGGSLRLSCAASGRAFSTLAMGWFRQAPGKEREFVAAISRNGNNSATGDSLKGRFTISRDSTKSTVFLQMNTLKPEDTAVYYCAAISTPSASHPYVRKESYRYWGQGTLVTVSS
notes: Purified monovalent protein

binding result [1]: no binding
binding result [2]: no binding
B2: F0103505D08 (VHH)
VHH: EVQLVESGGGLVQAGGSLRLSCVTSGRTSDLSTMNWFRQAPGKEREFVARITRRGSTYYAESVKERFIISRDNAKNTVYLQMNSLKPEDTANYYCTAASEMGYHYRGQGTLVTVSS
notes: Purified monovalent protein; also called F0103505D8
